Legend:
[1] = molecular target: the molecule itself; experiment: ultracentrifugation, self-association (dimerization)
[2] = molecular target: the molecule itself; experiment: DSG crosslinking, SDS-PAGE (FIG. 7), self-association
Text: (§1) The crosslinking covalently traps Ref in oligomeric states. […] Cys11 is responsible for dimerization of the P1 Ref protein.
In order to determine the role of Cys11, a φW39 R11C variant was constructed and purified. […] The truncation variants' monomeric state was verified by analytical size exclusion (FIG. 9).

[3] = molecular target: the molecule itself; experiment: gel filtration (Superdex 200), self-association, Example 4
[4] = molecular target: the molecule itself; experiment: DSG crosslinking, SDS-PAGE, self-association
Text: as §1
Upon amino acid sequence analysis of P1 WT and φW39 WT, we noticed that P1 Ref contains Cys11 while φW39 Ref contains Arg11.

| Protein | apparent molecular mass by gel filtration [3] [kDa] | other results |
| --- | --- | --- |
| P1 wild type Ref (bacteriophage P1 full length Ref protein) (enzyme, Full-length native protein purified from E. coli; The dimer is reported to be held by a Cys11 disulfide bond) MKTIEQKIEQCRKWQKAARERAIARQREKLADPVWRESQYQKMRDTLDRRIAKQKERPPASKTRKSAVKIKSRGLKGRTPTAEERRIANALGALPCIACYMHGVISNEVSLHHIAGRTAPGCHKKQLPLCRWHHQHAAPAEVREKYPWLVPVHADGVVGGKKEFTLLNKSEMELLADAYEMANIMH | – | binding result [1]: binds |
| φW39 R11C Ref (enzyme, Plasmid pEAW933; Full-length variant) MKTIEQKLEQCREWQKAARERAIARQREKLADPAWRESQYQKMRDSIDRRIAKQKERPPASKTRKSAVKIKSRGLKGRTPTAEERTIANALGTLPCIACYMHGVISEEVSLHHISGRTAPGCHKKQLPLCRWHHQHAAPAEVREKYPWLVPVHADGVVGGKKEFTLLNKSEMELLADAYEMANIMH | – | binding result [2]: binds |
| φW39 wild type Ref (φW39 phage full length Ref protein) (enzyme, Full-length native protein) MKTIEQKLEQRREWQKAARERAIARQREKLADPAWRESQYQKMRDSIDRRIAKQKERPPASKTRKSAVKIKSRGLKGRTPTAEERTIANALGTLPCIACYMHGVISEEVSLHHISGRTAPGCHKKQLPLCRWHHQHAAPAEVREKYPWLVPVHADGVVGGKKEFTLLNKSEMELLADAYEMANIMH | 35 | – |
| P1 ΔN76 Ref (enzyme, Purified as in Gruenig et al 2011; The range 77-186 is derived from the name ΔN76) GRTPTAEERRIANALGALPCIACYMHGVISNEVSLHHIAGRTAPGCHKKQLPLCRWHHQHAAPAEVREKYPWLVPVHADGVVGGKKEFTLLNKSEMELLADAYEMANIMH | – | binding result [4]: no binding |
| φW39 ΔN21 Ref (enzyme, Plasmid pEAW886; The construct starts with a Met codon from the NdeI site) AIARQREKLADPAWRESQYQKMRDSIDRRIAKQKERPPASKTRKSAVKIKSRGLKGRTPTAEERTIANALGTLPCIACYMHGVISEEVSLHHISGRTAPGCHKKQLPLCRWHHQHAAPAEVREKYPWLVPVHADGVVGGKKEFTLLNKSEMELLADAYEMANIMH | 33.6 | – |
| φW39 ΔN47 Ref (enzyme, Plasmid pEAW865; The construct starts with a Met codon from the NdeI site) DRRIAKQKERPPASKTRKSAVKIKSRGLKGRTPTAEERTIANALGTLPCIACYMHGVISEEVSLHHISGRTAPGCHKKQLPLCRWHHQHAAPAEVREKYPWLVPVHADGVVGGKKEFTLLNKSEMELLADAYEMANIMH | 27.6 | – |
